# B1: Recombinant human CD19 antigen (CD19 (C-Fc), Novoprotein, Cat #: C572) (Fc fusion, UniProt P15391 20-291, looked up)
# chain: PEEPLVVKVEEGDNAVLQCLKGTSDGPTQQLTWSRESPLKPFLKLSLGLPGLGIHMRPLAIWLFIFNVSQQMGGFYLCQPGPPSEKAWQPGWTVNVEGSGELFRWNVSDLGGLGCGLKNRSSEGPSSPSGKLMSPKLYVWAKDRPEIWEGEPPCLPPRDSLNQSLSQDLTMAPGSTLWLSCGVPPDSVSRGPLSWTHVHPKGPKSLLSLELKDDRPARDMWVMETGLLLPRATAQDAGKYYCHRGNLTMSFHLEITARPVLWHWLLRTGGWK
# notes: Bought C-terminal Fc fusion; also called rhCD19; hCD19 antigen; not shown: C-terminal Fc tag of the bought protein
# Biological target: T1, trispecific antibody LMOAME
# T1 construct: Trispecific single-chain tandem scFv, monomer of 83.8 kDa without Fc; also called CD19×CD3×CD28 antibody; LMOAME DP
# Test: ELISA, antigen-Fc coated on the plate, detection with HRP-protein L
binder,measurement,value
B1,binding result,binds

# Source: patent US20260184785A1 (CYTOCARES SHANGHAI, published 2026)
